Laboratory results as given in article doi:10.1101/2023.05.02.539095 (bioRxiv, 2023).

Biological target: the molecule itself
Experiment: SEC-MALS

B1: MSMEG_0317-His (wild type, made in E. coli) (natural protein)
chain: MNRAVALRIAACGLLGLGAALLIAALLLTTYTKGKIAKIPLDIDTSLVSDGTATAFDPDSLVAERFKIDRDVPVALQQQMSVEAPSNADVVTFQVGTTLRRTDRQQDAGLLLALVDTVTMNRNTAEAVSSENNPGGAVQKPRAIEDEKPPTNIALPHEGLTYRFPFDTEKKTYPFFDPIAQKAFDANYDGEEDVNGLTTYRFVQNVGYDADGKLADPIKYSSLYEDDADASVTARAEVWGVPGEPDESITMDRFYAASRTFWVDPVSGTIVKSEEHGYQYYAREALKPEVTYVDFKVTTNEESVESQVAAASDERDRIALWTRILPITFTALGLVSLVGGAVLGSFALRTESTLIDPGLDTADHGFFDTQGIQVPGAEAKTEKLPAQRPTDLPPDRPI
  stoichiometry N: 2
